Source: US20210403584A1 (ARMAGEN, published 2021)
One block for each molecule: values may come before it.

Legend:
[1] = target: human insulin receptor extracellular domain (HIR ECD) (human) (UniProt P06213); assay: ELISA, HIR ECD plated; against the HIR Ab
[2] = target: T1, human insulin receptor extracellular domain (HIR ECD) (human, UniProt P06213 28-956, limits assumed); assay: ELISA, recombinant HIR ECD plated, secondary antibody and alkaline phosphatase detection
T1 construct: extracellular domain
Description: The potency of the CHO-derived fusion protein was assessed with the HIR ECD binding ELISA. The affinity of the fusion protein for the HIR extracellular domain (ECD) was determined with an ELISA. Recombinant HIR ECD was plated on Nunc-Maxisorb 96 well dishes and the binding of the HIR Ab, or the HIR Ab-GLB1 fusion protein, to the HIR ECD was detected with a secondary antibody, followed by binding with an alkaline phosphatase detector reagent. […] The MW of the HIR Ab is 150 kDa, and the MW of the HIR Ab-fusion protein is 334 kDa.

binding activity lost [1]: > 95%
Molecule: GUSB-HIR Ab fusion protein (GUSB fused to the amino terminus of the HIR Ab heavy chain) (from UniProt P08236 23-633)

EC50 [2]: 0.037 µg/mL
B1: chimeric HIR Ab (human insulin receptor antibody) (antibody, human IgG1, kappa, V domains shown)
VH: QVQLQQSGPELVKPGALVKISCKASGYTFTNYDIHWVKQRPGQGLEWIGWIYPGDGSTKYNEKFKGKATLTADKSSSTAYMHLSSLTSEKSAVYFCAREWAYWGQGTLVTVSA
VL: DIQMTQSPSSLSASLGERVSLTCRASQDIGGNLYWLQQGPDGTIKRLIYATSSLDSGVPKRFSGSRSGSDYSLTISSLESEDFVDYYCLQYSSSPWTFGGGTKMEIKR
notes: Chimeric antibody against the extracellular domain of the human insulin receptor; human IgG1/kappa constant regions; also called HIRMAb; HIR MAb
